2 substances from patent US20180320200A1 can be followed below.

This assay deals with cell surface of 293 AAV cells (human). Nature of the assay: cell binding on ice for 1 h at 200000 TU/cell; unbound particles recovered from the medium and titrated on TG1 E. coli by colony counting; relative to control.

The substance “M13.PAAV vector (non-targeted phagemid/AAV particle lacking RGD4C) (from UniProt P69168 19-424)” displayed a binding efficiency (percentage of vectors bound to the cell surface) of 7.1%.

Consider “RGD.PAAV vector (phagemid/AAV particle displaying the RGD4C targeting peptide on the pIII minor coat protein)”, for which the binding efficiency (percentage of vectors bound to the cell surface) is 58.2%.
